Measurements: the DeepSol protein solubility set

Assay: soluble on expression in E. coli; label from the status in PepcDB or PDB records

Row | Sequence | soluble on expression in E. coli
1 | MGSDKIHHHHHHMKRRILFIHNNLGGGGAEGALIEVLNHLDYNRYDVTLFLLYRTGDFIDRVPPQVHFKHEQFGRFFPGYKGKIAIRCGLRNMLLRCCAKRVFANEKYDTIVSFMESAPAKFHSYILDKGKRNITWVHCDLLNNHYTTGFFLTLKQEQKFYSRMDDVIFVSEDAKKNFSKLFGIDKGRVIYNIIDQRAICKRSKAVSSMPRHRTFTFVNVGSLKEIKRQDRIIETAALLKARGYDADFWLIGKGIWEERLKAQATALNVSDSVHFLGFQSNPYPYVAAADVFLMTSDSEGFPLVVAEAMCLGKAVISTRITGPMEMLGNGRYGILTGFSPEEIANSAISLIEDPKLLSSYQHLAYERSISYFDVNGVMTQIHDVIGN | not soluble
2 | MSLRQVIPIPSPPAKYLLPEVTVLDYGKKCVVIDLDETLVHSSFKPISNADFIVPVEIDGTIHQVYVLKRPHVDEFLQRMGQLFECVLFTASLAKYADPVADLLDRWGVFRARLFRESCVFHRGNYVKDLSRLGRELSKVIIVDNSPASYIFHPENAVPVQSWFDDMTDTELLDLIPFFEGLSREDDEGHHHHHH | soluble
3 | VPSPDDTEVTVARLTSMSSAEEPLTAGRDGLLSLLRNGQLPSRGAKAPQRERYQRIVAAAMELASEGGYDAVQMRAIADRAGVALGTVYRYFPSKNHMLVMGLLMVFEGMRSRFEDVAIPGDTPSERILFVLRKNTEVLEKDRPRYEALVRAFMFADASASAELDAFGALMTEMFAKTIGVEQISDDQLNAIRVIGDVWMSSLVSWVAGRISVDEVMAHLGLAVRLVFRRLGG | not soluble
4 | MSLSIYSVGRWICRSYFRLFFKVEVIGASRIPDEGGLLLCCNHFSNYDPPFVGSFFPRKVRFMAKEELFRFKPLQSLMMAVGAFPVRRGAGDKQALKVGLKLLKEGETLGIFPEGTRSKDGQIGKGLSGVGFFALRSDATVVPCAIVGKYRFFRKVRFVIGEPVPMEELKERKASAEEATEVIMKAIRKLHEQNQMSEGHHHHHH | soluble
5 | GSGVDFYDVAFKVMLVGDSGVGKTCLLVRFKDGAFLAGTFISTVGIDFRNKVLDVDGVKVKLQMWDTAGQERFRSVTHAYYRDAHALLLLYDVTNKASFDNIQAWLTEIHEYAQHDVALMLLGNKVDSAHERVVKREDGEKLAKEYGLPFMETSAKTGLNVDLAFTAIAKELKRRSMKAP | soluble
6 | MSLDEPTDGTGAGTSATEMLDSLEVKGRAPKTGYKRTQFGKAWADVDHNGCDTRNDILNRDLTGVRHKWRTHNCVVKSGKLHDPYTGKDIKFKKGKKTSTAVQIDHVVALSDAWQKGAQKLSEERRTALANDPYNLMAVQGRANQKKSDGDAATWMPSNKGFRCEYVARQIGVKHKYSLWVTQAEKEAMAKVLSSCPTQTVPDYTGVKDSTAEKTTESEQTEQTQTEQSAEQAQQTQQTTQAPAPEPAPAPAPAPQPAPQQDVYYQNCTAARAAGAAPIYQGQPGYRSQLDRDHDGVACEEGHHHHHH | soluble
7 | TQQPQQDEMPSPTFLTQVKESLSSYWESAKTAAQNLYEKTYLPAVDEKLRDLYSKSTAAMSTYTGIFTDQVLSVLKGEE | soluble
8 | MAHHHHHHMQYNLIGSKINNHYVVDPYVSLLYLKRAYKFLRLLKDSGGEAIILGNKHREVHLEHYFGNVQRKETCSLNILTNVTKRYDLLICTDLPLFYPYMRNVLIPKMLVADGATFVKYKTFLHAFDYFIPLTGEKLDRHLHYVLARRYLSGGELR | not soluble
9 | MGSDKIHHHHHHMKEKTVAIFNGYYIPHLGGVERYTYNIAKKLTEKGYRVIIITTQHDENLTNEEIQEGIKIYRLPIKNLWKNRYPFLKKNRIYHSLIEKIEAESIDYYVANTRFHLPAMLGVKMAKAKGKEAIVIEHGSSYLTLNNPVLDFMLRKIEQLLIGRVKKDTSLFYGVSNEASEWLKTFDIKAKGVLPNAVAVDEYFNQKIEKDEKKLTISYAGRLIPQMKGVEILLSTFSKLSKERKNLELIIAGDGPLLNEVKRKYSQKNIKFLGYVPYEKVLEIDAKSDVFVLMSRSEGFATAMLEAAMLENVIITTPTVGGARDIMPDETYGYIIENNETKLFETLTKVLDNKEHMRLMQKKISKNVLENFTWEQSAKQFIKVFNELDEK | not soluble
10 | GPGSMSERDKQRRSLERERMATVIFSYISHLMRTHEEETTVADEFIPSTKFFRTETLPNISLIHYVRRVVEHMNCSPEAYIFALAYIRRLFVAGFPLHTHSIYRLLLTAVVVATRVRDDFLFSKKYYSKVGGVTACDLNMMEIHFLADLLEYRVEVSPDEYRVLCNEITALLSSEVSKFDGNSSNPNNDTAAEGVASIQEPVGNSKPRWMSECCLYW | not soluble
11 | MGSDKIHHHHHHVSQLSPWQHYQQDLKRDDFSHDLAQEQAVTALQRVYEELIAATKPASGIAALLKAVTGKNKRASVQGLYLWGGVGRGKTYLMDTFFDALPTEDKLRAHFHRFMHQLHHDLGELKGVQDPLLTIAKKMAKQYQVICFDEFFVSDITDAMLLGTLFQALFKEGVVLVATSNIIPDELYKNGLQRARFLPAIALINQHCQILNVDSGIDYRLRTLEQAEIYHHPLDAQADVNLLQYFKQLAPESEVFTHALDIDGRKIAIRQQSQGVLLVDFRALCDGPRSQRDYMEIARLYHTVLLSGLVQMGAQQTGDDIARRFLAVVDEFYERNVKLIISAQVSLEQIYTQGQLDFEFRRCRSRLIEMQSHDYLALEHLP | not soluble
12 | MSLAKYKRVVLKLSGEALAGEQGYGIDPEVIQSIASQIKEIVELDVEVAVVVGGGNIWRGMAGSAKGMDRATADYMGMLATVMNSLALQDSLENLDVQSRVQTSIEMRQVAEPYIRRRAIRHLEKKRVVIFAAGTGNPYFSTDTTAALRAAEIEAEVILMAKNKVDGVYNAEPSVDVNAKKYTSISYLDVLKEGLAVMDSTASSLCMDNNIPLIVFSIMEEGNIKKAVLGEEIGTVVRGSNEGHHHHHH | soluble
13 | MSDPRAPRLCVLIDADNVPANYAEAIFEEIAALGEASVRRIYGDWSAMRLNAWAKKVAALGLVADQQFSNTKGKNASDIGLVISAMDFLHSGLFDGFVLVSSDSDFTRLAARIREQGLDVYGIGEKKTPEAFRMACKRFIYVENLGSDEPPAREPRPADEPQQPPAQRGREKEEPMKAIPLIAAAMRAIDPEGEWYSLGQIGQFITQANPDFDTRTYGSAKLSDLIKKISRFEVKPGPGGQLLARDIALEHHHHHH | not soluble
14 | MKKDQYFNLEVNFLSNDNIVRMMMELDAAQSLGIYMMLLTHLRKADNYEASCCPLCMGAFARMYDLDAGVLQRVLREFDLFVLDEERQMFRSPYLDRVMARLEERRMINVANGKKGGRPKRMESTPETPMDKGEKPNQNQKSREEERRVTTVVKDNNSSNEEKTEKENSAAASDRLQIVSPPEDRGQLPLQPVLPWEMLVDQMAESESYMESMAMHSCMGKLFVERQEEVIAAFKEHIRRFGREDGLLFLRDVKLYFGNYLSPGGRPAQELKKRLLGSCRQSAEEELYRFEQLIGGQRTYLGHPIPKDAPPRPDRSAVWDEVHWKWGN | not soluble
15 | HTERVGWLSGRIAEEMGMSEVFVTEIQFAAPLHDIGKIGIPDRILLKPGILTPEEFEIMKQHTTIGFRILSRSNSPILQLGAEIALTHHERWDGSGYPRGLKEREIPISGLIVAVADSFDA | not soluble
16 | MGSDKIHHHHHHMKQEFLHIASSLWATVAAQISRHTGQTFAPESLTPIGGGCINQTFCIRDHERQYFVKLNKAGNLAMFESEAAGLGEILDSASLRVPQPLCCGSHHDDAWLVLEFIDLQNRGNAAALGIGLANMHRHTAETFGWIRDNTIGSTPQRNATASDWISFWRQHRLGYQLNLARKNGHTGSLQSLGERLLSEFQHFFTDTLPLPSLLHGDLWGGNYAFDQDGQPVIFDPAVYYGDREADLAMTELFGGFPPDFQAAYRDTWPVETGYTTRKQLYNLYHILNHLNLFGPQYLSQAEITMKKLLAELY | not soluble
17 | MQKSVLITGCSSGIGLDSALELKRQGFQILAGCRKPDDVARMNSMGFTGVLIDLDSPESVDRAADEVIALTDNRLYGIFNNAGYGVYGPLSTISREQMEQQFSSNFFGAHQLTMRLLPAMLPHGEGRIVMTSSVMGLISTPGRGAYAASKYALEAWSDALRMELRHTGIKVSLIEPGPIRTRFTDNVNQTQRDKPVENPGIAARFTRDPDAVVAKVRHAFASDKPRLRYPVTLVTWAVMALKRILPGRMLDKILQS | not soluble
18 | MEIKRILVSRTDKIGDLVLSIPSFFMLKKMYPNAELVVIVRKYNVDIVKNLPYIDRIVIIDEYSKAELLEKIAYFKADVFIALYNDSYIASLARASKAKIKIGPISKLSSFFTYNKGVLQKRSLSLKNEGQYNLDLVTKLDRKRFAILYELNTKLEHHHHHH | soluble
19 | MAFICELDEQWSYVGSKARQHWLGYAYNTKTGGVLAYTFGPRTDQTCRELLALLTPFNIGMLTSDDWGSYGREVPKNKHLTGKIFTQRIERNNLTLRTRIKRLGRKTICFSRSVEIHEKVIGAFIEKHMFY | not soluble
20 | MSEFSQTVPELVAWARKNDFSISLPVDRLSFLLAVATLNGERLDGEMSEGELVDAFRHVSDAFEQTSETIGVRANNAINDMVRQRLLNRFTSEQAEGNAIYRLTPLGIGITDYYIRQREFSTLRLSMQLSIVAGELKRAADAAEEGGDEFHWHRNVYAPLKYSVAEIFDSIDLTQRLMDEQQQQVKDDIAQLLNKDWRAAISSCELLLSETSGTLRELQDTLEAAGDKLQANLLRIQDATMTHDDLHFVDRLVFDLQSKLDRIISWGQQSIDLWIGYDRHVHKFIRTAIDMDKNRVFAQRLRQSVQTYFDEPWALTYANADRLLDMRDEEMALRDEEVTGELPEDLEYEEFNEIREQLAAIIEEQLAVYKTRQVPLDLGLVVREYLSQYPRARHFDVARIVIDQAVRLGVAQADFTGLPAKWQPINDYGAKVQAHVIDKY | soluble
21 | QREIQGVRHFVADLSEAARLGLVPGEHYFCVSSIRVDRQHDGAPLCWTDVYAQRDYTAVIELAREHPDQLIAGLIEQHYGRAIAVVDQQVRAVLLTAEMARALKAEAGSPGLKIIRHYREENGDLMAVSETVHPDDRFT | not soluble
22 | MAHHHHHHMAWTVHEDEYRTEGYDNLEEILQYVVHTEESVQQSKPTVKYTKSSQVFATPSPLTAAELSSPIKHQLTNTVPWQPQSHTPTNSSFHSLGIPYTSAQSPQQRRCNNRFNGSYSGQCDRKPKIMSSSETCILSPGARKRGMGTGQMDHMMATELNEMPMPELITQEVLASKDMMVGGGYSDWSGSGSKYFQSGALTADSLRGRVYETAKDQHGCRYLQRWLDTNCDPEALQVMMNEIIPHVGELMTDQYANFLIQKLFDIMPDDVRYKVAIVAAPQICMISLTPHGTFSVQKMIETISTREEMEIISEALCKDVVRLVKDAHGNHVIQKVLQRFDFDDKEYIYRAVATDCVSIAKNKQGCCVLQRCLEHASPRQKAALVDQVLACCLQIVQDPFGNYVLQYVLEEHDSKINDTIALAFLPHLVQLSMNKFSSNVMEKVLRGASGPVQVMYMEEMCNPEIISHLIQDDYGNYVLQTALTINAPVQAAQLVNVIRPFMPLIRNAPYAKKMEGKMENVARKVECNHFHAPRDCEVDARQGSSGGSPHGKFDRSPNHGRHYVGGTDQQQPYNHPT | not soluble
23 | MGSDKIHHHHHHMDTLNQIDISIIIPIYNVEKYLTVCIDSLKNQGGLRMEIILVNDGSTDLSGEIADEYAKKEERIKVIHQENGGASAARNVGLDIATEEYIAFLDSDDWIKDESLSLLYDEAVKHHADVVMGNMWLCHQDGSMDKPFKCISNGSIKELLSGKESFIELVKTCFYLPMPFKYIYNRKYLHKIQARFEEGIMHEDELWCPIVLCQAERMVITNIEFYYYRQNEESVMHTTSLARRLKSLFQVTEGLIKFSDQFVSSKTSVDLRSWWYVNILRLYSKAFTLLPNIKDSSYIVHKHYLDRFWRDCGQMIPESIQRCRNYYYKAEAGLKEYTDWRVSDWVAGVDCQIKAGKKVMLVFNTINGEDLQLKIEDVPVDWVITTDRKYFQQATIVVFHLPTLHYELENDQDKLEGQTWVSWHLESEKDDPGINDPEISELFDLLISDPQDSEGEQHPLLRLCRNYVNNG | not soluble
